Molecular target: A. fumigatus FKBP12(V91C) (Aspergillus fumigatus)
Assay: cross-linking; disulfide trapping through the single cysteine V91C; protein purified from C41(DE3) and SHuffle cells without reducing agent; nonreducing SDS-PAGE

Substance: A. fumigatus FKBP12(V91C) (enzyme)
- stoichiometry N: 2

Reference: paper PMC4850266
